Where a chain is given by its changes, count along the chain named. Numbers in names are those of the source. Where two headings read alike, the source gives them in different places.
Columns and labels:
[1] = target: T1, human CD47 (hCD47) expressed on cells (human, UniProt Q08722 19-323); test: cell-based or functional assay
[2] = target: T1, human CD47 (hCD47) expressed on cells; test: flow cytometry, Raji cells
Description: (§1) Raji cells (ATCC-CLL-86; 2×10⁵ cells/well of 96-well plate) were first incubated at +4° C. for 30 minutes with serial dilutions of anti-CD47 antibodies or control isotype antibody (in mIgG2a or mIgG1 format). The cells were then washed and incubated for 30 minutes at +4° C. with a PE-conjugated F(ab)′2 goat anti-mouse IgG antibody ( 1/100 dilution, Beckman Coulter). After washings, the fluorescence of the cells was analyzed by flow cytometry on an Accuri-C6 flow cytometer (BD Biosciences).
(§2) The delta of MFI, representing the difference between the intensity measured with the tested antibody and the intensity in the absence of antibody, was calculated for each antibody concentration and the values were plotted against the antibody concentrations. The EC50 values were then calculated by using a nonlinear regression analysis model of the GraphPad Prism software.

[3] = target: T2, mouse CD47 (mCD47) expressed on CHO cells (mouse, UniProt Q61735 19-303); test: flow cytometry, CHO-mCD47 cells
T2 construct: whole, on cells; also called CHO-mCD47
T2 sequence (looked up): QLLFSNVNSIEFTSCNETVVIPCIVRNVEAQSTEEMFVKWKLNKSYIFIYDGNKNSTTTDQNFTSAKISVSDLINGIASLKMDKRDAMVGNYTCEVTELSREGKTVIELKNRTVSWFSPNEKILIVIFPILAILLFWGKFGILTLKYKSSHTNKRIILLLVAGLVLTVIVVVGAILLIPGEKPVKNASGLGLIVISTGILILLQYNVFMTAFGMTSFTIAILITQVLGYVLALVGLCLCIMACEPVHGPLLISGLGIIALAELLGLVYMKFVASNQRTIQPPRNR

[4] = target: T3, hu-sCD47-6His; extracellular domain of human CD47 antigen with 6His-tag (human); test: SPR Biacore T200, antibody captured, hCD47-his analyte;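 note: antibodies captured on anti-IgG (Fc) CM5 chip, five sequential 10 min antigen injections at rising concentrations, reference flow cell and antigen-free cycle as controls, 1:1 model fit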
T3 construct: also called hCD47-his; soluble hCD47
Excerpt: (§3) An anti-human or anti-mouse IgG (Fc) was first immobilized on the surface of Serie S Sensor Chips CM5 using the human or mouse antibody capture and amine coupling kits, following the manufacturer's instructions (GE Healthcare). […] The mouse, chimerized or humanized antibodies to be tested were then captured onto the appropriate anti-mouse or anti-human IgG surface in all flow cells except flow cell 1 used as control, at concentration and contact time adjusted so that ˜300 RU were captured on the surface. Binding kinetics were studied by passing increasing concentrations of hCD47-his in a series of five 10 minute injections through all flow cells at a rate of 30 μL/min. […] Following the final injection, buffer was passed across each flow cell for 60 minutes (mouse) or 30 minutes (human) to monitor the dissociation of bound antigen. Regeneration of the binding surface was carried out at the end of the cycle by flowing 3 M MgCl₂ for 60 s at 20 μL/min followed by 10 mM glycine-HCl, pH 1.7 for 180 s at 10 μl/min (for human) or by flowing 10 mM glycine-HCl, ph 1.7 for 360 s at 10 μl/min (for mouse). A second cycle with the same antibodies but no antigen was run as a control. Kinetics binding constants were estimated by non-linear fitting of the sensogram data to the 1:1 binding model provided by the Biacore T200 evaluation software.

[5] = target: T1, human CD47 (hCD47) expressed on cells; test: flow cytometry, hCD47-CHO cells, competition with His-hSIRPα
Description: Human CD47-transfected cells (3×10⁵ cells/well of 96-well plate) were first incubated at +4° C. for 30 minutes with serial dilutions of anti-CD47 antibodies or isotype control antibody (in mIgG2a or mIgG1 format). […] The percentage inhibition was plotted against antibody concentration and the IC50 values were calculated using a nonlinear regression analysis model of the GraphPad Prism software.

[6] = target: T1, human CD47 (hCD47) expressed on cells; test: flow cytometry, Raji cells; upper end tied to candidate 19 by Table 6
Description: as §1, §2

[7] = target: T1, human CD47 (hCD47) expressed on cells; test: flow cytometry, Raji cells; lower end tied to candidate 15 by Table 6
Description: as §1, §2

[8] = target: T2, mouse CD47 (mCD47) expressed on CHO …; test: flow cytometry, CHO-mCD47 cells; remark: listed apart in the source
[9] = target: T3, hu-sCD47-6His; extracellular domain of …; test: SPR Biacore
Excerpt: as §3

[10] = target: T1, human CD47 (hCD47) expressed on cells; test: flow cytometry, Raji cells; remark: listed apart in the source
[11] = target: T1, human CD47 (hCD47) expressed on cells; test: flow cytometry, Raji cells, competition with hSIRPα
[12] = target: T1, human CD47 (hCD47) expressed on cells; test: flow cytometry on Raji cells, hIgG4 format, delta MFI
[13] = target: T1, human CD47 (hCD47) expressed on cells; test: flow cytometry on Raji cells, hIgG4 format: inhibition of hSIRPα binding to hCD47
[14] = target: T3, hu-sCD47-6His; extracellular domain of …; test: SPR Biacore; remark: listed apart in the source
[15] = target: T1, human CD47 (hCD47) expressed on cells; test: flow cytometry, Raji cells; remark: listed apart in the source
[16] = target: T3, hu-sCD47-6His; extracellular domain of …; test: SPR Biacore; head read as x 10^-4
Excerpt: as §3

[17] = target: T3, hu-sCD47-6His; extracellular domain of …; test: ELISA, coated glycosylated hCD47-His
Description: (§4) The EC50 and EC95 values were calculated by using the non-linear regression/log (antibody) versus response (four parameters) model of the GraphPad Prism software.

[18] = target: T4, N-deglycosylated soluble hCD47-His (PNGase treated) (human, N-glycans removed with PNGase); test: ELISA; against glycosylated hCD47-His
T4 construct: also called deglycosylated-hCD47; N-Deglycosylated hCD47-His
Description: as §4

[19] = target: T4, N-deglycosylated soluble hCD47-His …; test: ELISA, coated N-deglycosylated hCD47-His
[20] = target: T1, human CD47 (hCD47) expressed on cells; test: flow cytometry, Raji cells, competition with hSIRPα; remark: listed apart in the source
[21] = target: T3, hu-sCD47-6His; extracellular domain of …; test: ELISA, one-site binding saturation fit, glycosylated hCD47
Description: (§5) The equilibrium binding constant values were calculated by using the binding saturation/one-site binding model of the GraphPad Prism software (mean +/− SD of triplicates).

[22] = target: T3, hu-sCD47-6His; extracellular domain of …; test: as above; remark: listed apart in the source
Description: (§6) The Bmax values were calculated by using the binding saturation/one-site binding model of the GraphPad Prism software (mean +/− SD of triplicates).

[23] = target: T4, N-deglycosylated soluble hCD47-His …; test: ELISA, one-site binding saturation fit, deglycosylated hCD47
Description: as §5

[24] = target: T4, N-deglycosylated soluble hCD47-His …; test: as above; remark: listed apart in the source
Description: as §6

[25] = target: T1, human CD47 (hCD47) expressed on cells; test: flow cytometry on Raji cells, hIgG4 format, delta MFI; remark: listed apart in the source
[26] = target: T1, human CD47 (hCD47) expressed on cells; test: as above; remark: listed apart in the source
[27] = target: T1, human CD47 (hCD47) expressed on cells; test: as above; remark: listed apart in the source
[28] = target: T1, human CD47 (hCD47) expressed on cells; test: as above; remark: listed apart in the source
[29] = target: T1, human CD47 (hCD47) expressed on cells; test: flow cytometry on Raji cells, hIgG4 format: inhibition of hSIRPα binding to hCD47; remark: listed apart in the source
[30] = target: T1, human CD47 (hCD47) expressed on cells; test: as above; remark: listed apart in the source
[31] = target: T1, human CD47 (hCD47) expressed on cells; test: as above; remark: listed apart in the source
[32] = target: T1, human CD47 (hCD47) expressed on cells; test: as above; remark: listed apart in the source
[33] = target: T1, human CD47 (hCD47) expressed on cells; test: flow cytometry, Raji cells, competition with His-hSIRPα
Description: (§7) The percent inhibition was plotted against antibody concentration and the IC50 values were calculated by using a nonlinear regression analysis model of the GraphPad Prism software.

[34] = target: T1, human CD47 (hCD47) expressed on cells; test: flow cytometry, Raji cells, competition with His-hSIRPα; lower end tied to candidates 14 and 15 by Table 7
Description: as §7

B1: Candidate 19 (VL008-AL17-7G1-7K6), mouse IgG (antibody, V domains shown)
VH: QVQLQQSGPELVKPGASVKISCKASVYTFTDYYINWVKQRPGQGLEWVGWIFPGSGLTYYNKKFKGKATLTVDKSSSTAYMLLSSLTSEDSAVYFCARPYYGSRWDYAMDYWGQGTSVTVSS
VL: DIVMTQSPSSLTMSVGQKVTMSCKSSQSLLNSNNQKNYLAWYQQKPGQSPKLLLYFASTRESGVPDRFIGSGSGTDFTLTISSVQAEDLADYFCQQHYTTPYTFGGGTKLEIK
notes: Recombinant mouse IgG2a or mIgG1 format, by assay
B1 was tested, and the “Phagocytic index, Raji cells and human macrophages, antibody at 0.125 µg/mL” value (“Phagocytic index” below) [1] was 73.9 Raji cells ingested per 100 macrophages, the EC50 [2] was 0.165 µg/mL and the binding result [3] was “no binding (tested: 7.3 µg/mL highest concentration)”. For the same binder, the Kd [4] was 2.25 nM, the koff [4] was 0.000176 s⁻¹ and the kon [4] was 79000 M⁻¹ s⁻¹. For the same binder, the IC50 [5] was 0.858 µg/mL and the EC50 [6] was 1.1 nM.

B2: Candidate 15 (VT008-AL6-18G1-18K21), mouse IgG (antibody, V domains shown)
VH: QVQLQQPGAELVKPGTSVKLSCKASGYTFINYWIHWVKQRPGRGLEWIGRIDPNTVDAKYNEKFKSKATLTVDKPSSIAYMQLSSLTSEDSAVYYCSRGGYTMDYWGQGTSVTVSS
VL: DVVMTQTPLSLPVSLGDQASISCRSSQSLVHSNGNTYLHWYLQKPGQSPTLLIYKVSNRFSGVPDRFSGSGSGTDFTLKISRVEAEDLGIYFCFQSTHVPWTFGGGTKLEIK
notes: as for B1
With B2 the “Phagocytic index” value [1] was 74.4 Raji cells ingested per 100 macrophages, the EC50 [2] was 0.031 µg/mL and the Kd [4] was 4.24 nM. It also gave a koff [4] of 0.00239 s⁻¹, a kon [4] of 565000 M⁻¹ s⁻¹ and an IC50 [5] of 0.605 µg/mL. The EC50 [7] was 0.2 nM.

B3: Candidate 20 (VL008-AL18-14G4-14K1), mouse IgG (antibody, V domains shown)
VH: QVQLKQSGAELVRPGASVKLSCKASGYSFTDYYINWVKQRPGQGLEWIARIYPGIGNTYYNKKFKGKATLTAEKSSSTAYMQLNSLTSEDSAVYFCARGHYGRGMDYWGQGTSVTVSS
VL: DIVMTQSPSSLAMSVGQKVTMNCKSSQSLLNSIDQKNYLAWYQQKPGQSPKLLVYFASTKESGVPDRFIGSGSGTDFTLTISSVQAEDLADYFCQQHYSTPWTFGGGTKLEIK
notes: Recombinant mouse IgG2a or mIgG1 format, by assay; also called antibody 20
With B3 the “Phagocytic index” value [1] was 119 Raji cells ingested per 100 macrophages, the EC50 [2] was 0.096 µg/mL and the binding result [8] was “no binding (tested: 7.3 µg/mL highest concentration)”. The Kd [4] was 4.16 nM, the koff [4] was 0.000418 s⁻¹ and the kon [4] was 101000 M⁻¹ s⁻¹. It also gave an IC50 [5] of 0.44 µg/mL.

B4: h20-H3-L2Y (candidate 20.27), hIgG4-S228P (antibody, V domains shown)
VH: QVQLVQSGAEVKKPGASVKVSCKASGYSFTDYYINWVRQAPGQGLEWMGRIYPGIGNTYYNKKFKGRVTVTRDTSISTAHMELSSLRSDDTAVYYCARGHYGRGMDYWGQGTAVTVSS
VL: DIVMTQSPDSLAVSLGERATINCKSSQSLLNSIDQKNYLAWYQQKPGQPPKLLIYYASTKESGVPDRFSGSGSGTDFTLTISSLQAEDVAVYYCQQHYSTPWTFGGGTKVEIKR
notes: also called H20-VH3-VL2,Y
For B4, the Kd [9] was 2.06 nM, the koff [9] was 0.000584 s⁻¹ and the kon [9] was 292000 M⁻¹ s⁻¹. The EC50 [10] was 0.0854 µg/mL, the IC50 [11] was 0.101 µg/mL and the “EC50 (read off the curve)” value [12] was roughly 0.1 µg/mL. The “IC50 (read off the curve)” value [13] was roughly 0.2 µg/mL.

B5: hIgG4 chimeric candidate 20 (mouse VH0/VL0, human Fcγ4-S228P and human Kappa backbone) (antibody, V domains shown)
VH: B3 VH
VL: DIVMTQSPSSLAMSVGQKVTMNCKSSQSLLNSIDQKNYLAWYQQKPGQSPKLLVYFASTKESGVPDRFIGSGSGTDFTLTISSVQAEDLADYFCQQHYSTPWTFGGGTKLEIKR
notes: hIgG4-S228P/kappa; also called Chim; 20; Chim 20
B5 showed a Kd [14] of 3.22 nM, a kon [14] of 169000 M⁻¹ s⁻¹ and a Kd [9] of 2.48 nM. The koff [9] was 0.000543 s⁻¹, the kon [9] was 225000 M⁻¹ s⁻¹ and the EC50 [15] was 0.15 µg/mL. For the same binder, the EC50 [10] was 0.0751 µg/mL, the binding result [8] was “no binding” and the koff [16] was 0.000505 s⁻¹. The EC50 [17] was 0.028 nM, the EC95 [17] was 667 pM and the “EC50 ratio Deglycosylated/Glycosylated” value [18] was 1.7 ratio. For the same binder, the “EC95 ratio Deglycosylated/Glycosylated” value [18] was 5 ratio, the EC50 [19] was 0.0474 nM and the EC95 [19] was 3.33 nM. For the same binder, the IC50 [20] was 0.138 µg/mL, the IC50 [11] was 0.11 µg/mL and the equilibrium binding constant [21] was 27.3 pM. For the same binder, the Bmax [22] was 2.9 OD value, the equilibrium binding constant [23] was 38.8 pM and the Bmax2 [24] was 2.2 OD value. For the same binder, the “EC50 (read off the curve)” value [25] was roughly 0.1 µg/mL, the “EC50 (read off the curve)” value [12] was roughly 0.1 µg/mL and the “EC50 (read off the curve)” value [26] was roughly 0.1 µg/mL. For the same binder, the “EC50 (read off the curve)” value [27] was roughly 0.1 µg/mL, the “EC50 (read off the curve)” value [28] was roughly 0.1 µg/mL and the “IC50 (read off the curve)” value [29] was roughly 0.2 µg/mL. The “IC50 (read off the curve)” value [13] was roughly 0.2 µg/mL, the “IC50 (read off the curve)” value [30] was roughly 0.2 µg/mL and the “IC50 (read off the curve)” value [31] was roughly 0.2 µg/mL. For the same binder, the “IC50 (read off the curve)” value [32] was roughly 0.2 µg/mL.

B6: h20-H2-L5Y (candidate 20.26), huIgG4_S228P format (antibody, V domains shown)
VH: B4 VH with V70I, I76A, H80Y, D89E, A113L
VL: B4 VL with S83G, Y93F, K113R
notes: also called H20-VH2-VL5,Y; h2O-H2L5Y
For B6, the Kd [9] was 2.32 nM, the koff [9] was 0.000699 s⁻¹ and the kon [9] was 306000 M⁻¹ s⁻¹. For the same binder, the EC50 [10] was 0.0975 µg/mL, the EC50 [17] was 0.044 nM and the EC95 [17] was 1330 pM. The “EC50 ratio Deglycosylated/Glycosylated” value [18] was 2.2 ratio, the “EC95 ratio Deglycosylated/Glycosylated” value [18] was 8.5 ratio and the EC50 [19] was 0.096 nM. It also gave an EC95 [19] of 11.3 nM, an IC50 [11] of 0.113 µg/mL and an equilibrium binding constant [21] of 43.6 pM. The Bmax [22] was 2.85 OD value, the equilibrium binding constant [23] was 55.7 pM and the Bmax2 [24] was 1.97 OD value. For the same binder, the “EC50 (read off the curve)” value [25] was roughly 0.1 µg/mL and the “IC50 (read off the curve)” value [29] was roughly 0.2 µg/mL.

B7: Candidate 14, chimeric hIgG format (hIgG1 or hIgG4) (antibody, V domains shown)
VH: QVQLQQPGAELVKPGASLRVSCKASGYTFTNYWMYWVRQRPGRGLEWIGWIDPNSGGTKYNEKFKSKATLTVDKPSSTAYMQLSSLTSEDSAVYNCARGGYTMDYWGQGTSVTVSS
VL: B2 VL with S25A, T50K, I90V, F94S, W101L, G105A, I111L
notes: also called Candidate 14 (hIgG format)
B7 showed an IC50 [33] of 0.021 µg/mL and an IC50 [34] of 0.14 nM.

B8: Candidate 15, chimeric hIgG format (hIgG1 or hIgG4) (antibody, V domains shown)
VH: B2 VH
VL: B2 VL
notes: also called Candidate 15 (hIgG format)
Binder B8 has an IC50 [33] of 0.021 µg/mL and an IC50 [34] of 0.14 nM.
